Data set [1] in a line: immunoblot of protein level, rescue by MG132 or CQ. Conditions: glycan lost; control: untreated WT-SND1-EGFP. In general terms: A western blot detects proteins with antibodies after separation by electrophoresis.
A short description of data set [2]: confocal colocalisation with ER marker CNX. The note with it: glycan lost; control: WT-SND1-EGFP.
The nature of data set [3]: confocal colocalisation with Golgi marker GM130. The note with it: glycan lost; control: WT-SND1-EGFP.

This note sets out measurements from paper PMC9537018.

B1: Staphylococcal nuclease domain-containing protein 1 (SND1): tunicamycin (protein)
parent chain: MASSAQSGGSSGGPAVPTVQRGIIKMVLSGCAIIVRGQPRGGPPPERQINLSNIRAGNLARRAAATQPDAKDTPDEPWAFPAREFLRKKLIGKEVCFTIENKTPQGREYGMIYLGKDTNGENIAESLVAEGLATRREGMRANNPEQNRLSECEEQAKAAKKGMWSEGNGSHTIRDLKYTIENPRHFVDSHHQKPVNAIIEHVRDGSVVRALLLPDYYLVTVMLSGIKCPTFRREADGSETPEPFAAEAKFFTESRLLQRDVQIILESCHNQNILGTILHPNGNITELLLKEGFARCVDWSIAVYTRGAEKLRAAERFAKERRLRIWRDYVAPTANLDQKDKQFVAKVMQVLNADAIVVKLNSGDYKTIHLSSIRPPRLEGENTQDKNKKLRPLYDIPYMFEAREFLRKKLIGKKVNVTVDYIRPASPATETVPAFSERTCATVTIGGINIAEALVSKGLATVIRYRQDDDQRSSHYDELLAAEARAIKNGKGLHSKKEVPIHRVADISGDTQKAKQFLPFLQRAGRSEAVVEYVFSGSRLKLYLPKETCLITFLLAGIECPRGARNLPGLVQEGEPFSEEATLFTKELVLQREVEVEVESMDKAGNFIGWLHIDGANLSVLLVEHALSKVHFTAERSSYYKSLLSAEEAAKQKKEKVWAHYEEQPVEEVMPVLEEKERSASYKPVFVTEITDDLHFYVQDVETGTQLEKLMENMRNDIASHPPVEGSYAPRRGEFCIAKFVDGEWYRARVEKVESPAKIHVFYIDYGNREVLPSTRLGTLSPAFSTRVLPAQATEYAFAFIQVPQDDDARTDAVDSVVRDIQNTQCLLNVEHLSAGCPHVTLQFADSKGDVGLGLVKEGLVMVEVRKEKQFQKVITEYLNAQESAKSARLNLWRYGDFRADDADEFGYSR
Regarding B1, in data set [1], the degradation_or_half_life entry is “decreases”.

B2: Staphylococcal nuclease domain-containing protein 1 (SND1): N168Q (protein)
parent chain: MASSAQSGGSSGGPAVPTVQRGIIKMVLSGCAIIVRGQPRGGPPPERQINLSNIRAGNLARRAAATQPDAKDTPDEPWAFPAREFLRKKLIGKEVCFTIENKTPQGREYGMIYLGKDTNGENIAESLVAEGLATRREGMRANNPEQNRLSECEEQAKAAKKGMWSEGNGSHTIRDLKYTIENPRHFVDSHHQKPVNAIIEHVRDGSVVRALLLPDYYLVTVMLSGIKCPTFRREADGSETPEPFAAEAKFFTESRLLQRDVQIILESCHNQNILGTILHPNGNITELLLKEGFARCVDWSIAVYTRGAEKLRAAERFAKERRLRIWRDYVAPTANLDQKDKQFVAKVMQVLNADAIVVKLNSGDYKTIHLSSIRPPRLEGENTQDKNKKLRPLYDIPYMFEAREFLRKKLIGKKVNVTVDYIRPASPATETVPAFSERTCATVTIGGINIAEALVSKGLATVIRYRQDDDQRSSHYDELLAAEARAIKNGKGLHSKKEVPIHRVADISGDTQKAKQFLPFLQRAGRSEAVVEYVFSGSRLKLYLPKETCLITFLLAGIECPRGARNLPGLVQEGEPFSEEATLFTKELVLQREVEVEVESMDKAGNFIGWLHIDGANLSVLLVEHALSKVHFTAERSSYYKSLLSAEEAAKQKKEKVWAHYEEQPVEEVMPVLEEKERSASYKPVFVTEITDDLHFYVQDVETGTQLEKLMENMRNDIASHPPVEGSYAPRRGEFCIAKFVDGEWYRARVEKVESPAKIHVFYIDYGNREVLPSTRLGTLSPAFSTRVLPAQATEYAFAFIQVPQDDDARTDAVDSVVRDIQNTQCLLNVEHLSAGCPHVTLQFADSKGDVGLGLVKEGLVMVEVRKEKQFQKVITEYLNAQESAKSARLNLWRYGDFRADDADEFGYSR
B2: the localisation_or_trafficking entry in data set [2] and in data set [3] was “no change” throughout.

B3: Staphylococcal nuclease domain-containing protein 1 (SND1): N416Q (protein)
parent chain: MASSAQSGGSSGGPAVPTVQRGIIKMVLSGCAIIVRGQPRGGPPPERQINLSNIRAGNLARRAAATQPDAKDTPDEPWAFPAREFLRKKLIGKEVCFTIENKTPQGREYGMIYLGKDTNGENIAESLVAEGLATRREGMRANNPEQNRLSECEEQAKAAKKGMWSEGNGSHTIRDLKYTIENPRHFVDSHHQKPVNAIIEHVRDGSVVRALLLPDYYLVTVMLSGIKCPTFRREADGSETPEPFAAEAKFFTESRLLQRDVQIILESCHNQNILGTILHPNGNITELLLKEGFARCVDWSIAVYTRGAEKLRAAERFAKERRLRIWRDYVAPTANLDQKDKQFVAKVMQVLNADAIVVKLNSGDYKTIHLSSIRPPRLEGENTQDKNKKLRPLYDIPYMFEAREFLRKKLIGKKVNVTVDYIRPASPATETVPAFSERTCATVTIGGINIAEALVSKGLATVIRYRQDDDQRSSHYDELLAAEARAIKNGKGLHSKKEVPIHRVADISGDTQKAKQFLPFLQRAGRSEAVVEYVFSGSRLKLYLPKETCLITFLLAGIECPRGARNLPGLVQEGEPFSEEATLFTKELVLQREVEVEVESMDKAGNFIGWLHIDGANLSVLLVEHALSKVHFTAERSSYYKSLLSAEEAAKQKKEKVWAHYEEQPVEEVMPVLEEKERSASYKPVFVTEITDDLHFYVQDVETGTQLEKLMENMRNDIASHPPVEGSYAPRRGEFCIAKFVDGEWYRARVEKVESPAKIHVFYIDYGNREVLPSTRLGTLSPAFSTRVLPAQATEYAFAFIQVPQDDDARTDAVDSVVRDIQNTQCLLNVEHLSAGCPHVTLQFADSKGDVGLGLVKEGLVMVEVRKEKQFQKVITEYLNAQESAKSARLNLWRYGDFRADDADEFGYSR
For the protein B3, the localisation_or_trafficking result in data set [2] and in data set [3] was “no change” each time.

B4: Staphylococcal nuclease domain-containing protein 1 (SND1): N50Q (protein)
parent chain: MASSAQSGGSSGGPAVPTVQRGIIKMVLSGCAIIVRGQPRGGPPPERQINLSNIRAGNLARRAAATQPDAKDTPDEPWAFPAREFLRKKLIGKEVCFTIENKTPQGREYGMIYLGKDTNGENIAESLVAEGLATRREGMRANNPEQNRLSECEEQAKAAKKGMWSEGNGSHTIRDLKYTIENPRHFVDSHHQKPVNAIIEHVRDGSVVRALLLPDYYLVTVMLSGIKCPTFRREADGSETPEPFAAEAKFFTESRLLQRDVQIILESCHNQNILGTILHPNGNITELLLKEGFARCVDWSIAVYTRGAEKLRAAERFAKERRLRIWRDYVAPTANLDQKDKQFVAKVMQVLNADAIVVKLNSGDYKTIHLSSIRPPRLEGENTQDKNKKLRPLYDIPYMFEAREFLRKKLIGKKVNVTVDYIRPASPATETVPAFSERTCATVTIGGINIAEALVSKGLATVIRYRQDDDQRSSHYDELLAAEARAIKNGKGLHSKKEVPIHRVADISGDTQKAKQFLPFLQRAGRSEAVVEYVFSGSRLKLYLPKETCLITFLLAGIECPRGARNLPGLVQEGEPFSEEATLFTKELVLQREVEVEVESMDKAGNFIGWLHIDGANLSVLLVEHALSKVHFTAERSSYYKSLLSAEEAAKQKKEKVWAHYEEQPVEEVMPVLEEKERSASYKPVFVTEITDDLHFYVQDVETGTQLEKLMENMRNDIASHPPVEGSYAPRRGEFCIAKFVDGEWYRARVEKVESPAKIHVFYIDYGNREVLPSTRLGTLSPAFSTRVLPAQATEYAFAFIQVPQDDDARTDAVDSVVRDIQNTQCLLNVEHLSAGCPHVTLQFADSKGDVGLGLVKEGLVMVEVRKEKQFQKVITEYLNAQESAKSARLNLWRYGDFRADDADEFGYSR
For B4, the degradation_or_half_life result in data set [1] is listed as “decreases”. The figures for the localisation_or_trafficking result in data set [2] and in data set [3] were “increases” and “decreases”, respectively.

B5: Staphylococcal nuclease domain-containing protein 1 (SND1): N283Q (protein)
parent chain: MASSAQSGGSSGGPAVPTVQRGIIKMVLSGCAIIVRGQPRGGPPPERQINLSNIRAGNLARRAAATQPDAKDTPDEPWAFPAREFLRKKLIGKEVCFTIENKTPQGREYGMIYLGKDTNGENIAESLVAEGLATRREGMRANNPEQNRLSECEEQAKAAKKGMWSEGNGSHTIRDLKYTIENPRHFVDSHHQKPVNAIIEHVRDGSVVRALLLPDYYLVTVMLSGIKCPTFRREADGSETPEPFAAEAKFFTESRLLQRDVQIILESCHNQNILGTILHPNGNITELLLKEGFARCVDWSIAVYTRGAEKLRAAERFAKERRLRIWRDYVAPTANLDQKDKQFVAKVMQVLNADAIVVKLNSGDYKTIHLSSIRPPRLEGENTQDKNKKLRPLYDIPYMFEAREFLRKKLIGKKVNVTVDYIRPASPATETVPAFSERTCATVTIGGINIAEALVSKGLATVIRYRQDDDQRSSHYDELLAAEARAIKNGKGLHSKKEVPIHRVADISGDTQKAKQFLPFLQRAGRSEAVVEYVFSGSRLKLYLPKETCLITFLLAGIECPRGARNLPGLVQEGEPFSEEATLFTKELVLQREVEVEVESMDKAGNFIGWLHIDGANLSVLLVEHALSKVHFTAERSSYYKSLLSAEEAAKQKKEKVWAHYEEQPVEEVMPVLEEKERSASYKPVFVTEITDDLHFYVQDVETGTQLEKLMENMRNDIASHPPVEGSYAPRRGEFCIAKFVDGEWYRARVEKVESPAKIHVFYIDYGNREVLPSTRLGTLSPAFSTRVLPAQATEYAFAFIQVPQDDDARTDAVDSVVRDIQNTQCLLNVEHLSAGCPHVTLQFADSKGDVGLGLVKEGLVMVEVRKEKQFQKVITEYLNAQESAKSARLNLWRYGDFRADDADEFGYSR
On to B5, for which the localisation_or_trafficking result in data set [2] and in data set [3] was “no change” throughout.
